{"source": "paper PMC10967246", "about": "(2023)", "binders": {"B1": {"name": "recombinant 6×His-tagged TTP1, RED-NHS labelled (natural protein)", "chain": "MLMTLAATTSVSFNSKLLLFRIRCSDSNPKRGFGSKKEEKDPALQQRKSSSKQSVSVPRKAPGLNTQFEGKSGRSFDIDFDERLENIRRSALEQKKTEVVKEFGPIDYDAPVKSDQKTIGLGTKVGVGIAVVVFGLVFALGDFLPTGSDSPTKNTTVVKNQISEEEKATLQQRLKEFETTLNGTPQDQAALEGAAVTLTELGDYSRAAAFLEKLAKERPTDPDVFRLLGEVNYELNNYEGSIAAYKISEKVSKGIDLEVTRGLMNAYLAAKKPDEAVKFLLDTRERLNTKKTSTTDSVTDETNLDPIQVELLLGKAYSDWGHISDAIAVYDQLISAHPEDFRGYLAKGIILRENGSRGDAERMFIQARFFAPNKAKALVDRYSKL", "modifications": "labelled with the RED-NHS Protein Labeling Kit, degree of labeling approximately 1.0"}}, "assay_in_all_cases": "MST", "key": {"[1]": {"biological_target": "T1, recombinant His-tagged GluTR-binding protein (GBP) (Arabidopsis, UniProt Q9LU39 43-317)", "T1 chain": "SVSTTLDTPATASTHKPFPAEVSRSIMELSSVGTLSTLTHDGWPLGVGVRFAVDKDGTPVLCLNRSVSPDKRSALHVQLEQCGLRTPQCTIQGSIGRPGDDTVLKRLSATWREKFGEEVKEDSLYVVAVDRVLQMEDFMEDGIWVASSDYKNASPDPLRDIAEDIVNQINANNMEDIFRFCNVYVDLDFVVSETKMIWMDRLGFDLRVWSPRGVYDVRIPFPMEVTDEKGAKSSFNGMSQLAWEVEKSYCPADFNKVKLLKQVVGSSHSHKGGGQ"}, "[2]": {"biological_target": "T2, recombinant His-tagged PORB (Arabidopsis, UniProt P21218 67-401)", "T2 chain": "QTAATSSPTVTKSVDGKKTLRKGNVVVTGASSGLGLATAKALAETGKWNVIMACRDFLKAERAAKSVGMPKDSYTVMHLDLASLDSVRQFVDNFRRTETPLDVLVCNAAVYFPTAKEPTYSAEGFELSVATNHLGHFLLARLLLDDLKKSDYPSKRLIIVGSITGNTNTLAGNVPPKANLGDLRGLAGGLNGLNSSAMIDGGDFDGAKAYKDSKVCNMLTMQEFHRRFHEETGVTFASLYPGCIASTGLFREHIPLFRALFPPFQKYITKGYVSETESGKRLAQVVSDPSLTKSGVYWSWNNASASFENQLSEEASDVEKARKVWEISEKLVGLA"}, "[3]": {"biological_target": "T3, recombinant His-tagged full-length GluTR1 (Arabidopsis, UniProt P42804 62-543)", "T3 chain": "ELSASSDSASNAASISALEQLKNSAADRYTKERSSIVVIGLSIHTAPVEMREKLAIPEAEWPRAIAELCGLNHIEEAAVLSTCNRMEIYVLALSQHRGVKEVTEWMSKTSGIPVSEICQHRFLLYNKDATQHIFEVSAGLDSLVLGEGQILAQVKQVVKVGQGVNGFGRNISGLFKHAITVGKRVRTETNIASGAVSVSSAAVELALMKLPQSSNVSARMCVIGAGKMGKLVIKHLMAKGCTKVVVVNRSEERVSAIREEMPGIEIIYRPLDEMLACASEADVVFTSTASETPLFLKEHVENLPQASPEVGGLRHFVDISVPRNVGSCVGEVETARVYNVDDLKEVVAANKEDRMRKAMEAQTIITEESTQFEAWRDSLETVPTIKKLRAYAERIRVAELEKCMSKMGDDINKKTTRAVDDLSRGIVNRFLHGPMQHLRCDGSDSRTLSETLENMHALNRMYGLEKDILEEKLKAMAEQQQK"}, "GST-tag": {"biological_target": "GST-tag (Schistosoma japonicum)"}, "[4]": {"biological_target": "T4, linker domain followed by the TPR domain of FLU, link TPR_((FLU)) (Arabidopsis)", "T4 chain": "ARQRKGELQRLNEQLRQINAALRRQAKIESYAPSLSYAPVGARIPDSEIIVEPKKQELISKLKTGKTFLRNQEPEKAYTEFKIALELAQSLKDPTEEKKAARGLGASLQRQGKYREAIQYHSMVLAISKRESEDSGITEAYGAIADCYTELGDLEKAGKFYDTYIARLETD"}, "[5]": {"biological_target": "T5, recombinant His-tagged PORC (Arabidopsis, UniProt O48741 68-401)", "T5 chain": "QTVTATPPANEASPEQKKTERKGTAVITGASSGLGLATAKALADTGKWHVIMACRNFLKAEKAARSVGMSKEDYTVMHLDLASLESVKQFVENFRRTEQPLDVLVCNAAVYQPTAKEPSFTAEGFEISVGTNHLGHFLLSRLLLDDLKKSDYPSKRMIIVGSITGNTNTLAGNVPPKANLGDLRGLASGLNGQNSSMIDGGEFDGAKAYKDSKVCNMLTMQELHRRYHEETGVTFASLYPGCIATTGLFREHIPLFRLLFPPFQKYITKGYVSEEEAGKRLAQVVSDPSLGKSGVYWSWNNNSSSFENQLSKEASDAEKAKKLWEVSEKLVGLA"}, "[6]": {"biological_target": "T6, TPR domain of FLU, TPR_((FLU)), GST-tagged (Arabidopsis)", "T6 chain": "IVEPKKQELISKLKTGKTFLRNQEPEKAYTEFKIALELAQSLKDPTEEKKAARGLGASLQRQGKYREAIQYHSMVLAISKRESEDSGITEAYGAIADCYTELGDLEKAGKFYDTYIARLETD"}, "ΔREDGluTR-6xHis": {"biological_target": "T7, ΔREDGluTR-6xHis (Arabidopsis thaliana)", "T7 chain": "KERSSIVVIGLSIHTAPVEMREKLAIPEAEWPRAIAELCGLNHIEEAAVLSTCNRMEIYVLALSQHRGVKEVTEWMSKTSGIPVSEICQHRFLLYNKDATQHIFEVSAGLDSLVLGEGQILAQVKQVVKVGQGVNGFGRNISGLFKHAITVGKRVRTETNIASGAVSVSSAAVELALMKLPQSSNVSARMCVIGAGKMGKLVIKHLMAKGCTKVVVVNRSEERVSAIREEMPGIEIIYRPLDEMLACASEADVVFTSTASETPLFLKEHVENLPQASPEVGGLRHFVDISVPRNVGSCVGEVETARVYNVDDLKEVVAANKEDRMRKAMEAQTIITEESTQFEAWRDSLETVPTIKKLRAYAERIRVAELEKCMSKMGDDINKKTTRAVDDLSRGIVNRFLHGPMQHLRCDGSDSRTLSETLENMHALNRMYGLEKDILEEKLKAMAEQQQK"}, "[7]": {"biological_target": "T8, recombinant His-tagged PORA (Arabidopsis, UniProt Q42536 70-405)", "T8 chain": "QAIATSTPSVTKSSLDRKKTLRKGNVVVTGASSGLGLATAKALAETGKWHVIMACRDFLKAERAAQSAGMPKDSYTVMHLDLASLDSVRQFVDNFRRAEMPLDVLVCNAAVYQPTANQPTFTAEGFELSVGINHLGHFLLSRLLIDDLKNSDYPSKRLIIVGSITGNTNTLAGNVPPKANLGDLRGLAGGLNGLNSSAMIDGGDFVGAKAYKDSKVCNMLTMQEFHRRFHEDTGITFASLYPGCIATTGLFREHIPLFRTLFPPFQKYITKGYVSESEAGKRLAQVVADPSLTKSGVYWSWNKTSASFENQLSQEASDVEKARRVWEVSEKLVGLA"}}, "data": [{"binder": "B1", "values": [{"measurement": "Kd", "setting": "[1]", "result": 266, "unit": "nM"}, {"measurement": "Kd", "setting": "[2]", "result": 476, "unit": "nM"}, {"measurement": "Kd", "setting": "[3]", "result": 295, "unit": "nM"}, {"measurement": "Kd", "setting": "GST-tag", "result": "> 400000", "unit": "nM"}, {"measurement": "Kd", "setting": "[4]", "result": 1610, "unit": "nM"}, {"measurement": "Kd", "setting": "[5]", "result": 112, "unit": "nM"}, {"measurement": "Kd", "setting": "[6]", "result": 7900, "unit": "nM"}, {"measurement": "Kd", "setting": "ΔREDGluTR-6xHis", "result": 3050, "unit": "nM"}, {"measurement": "Kd", "setting": "[7]", "result": 1310, "unit": "nM"}]}]}
